Measurements from patent publication US20150140573A1.
One block for each molecule: values may come before it.

Assays:
[1] = molecular target: barley limit dextrinase present in barley malt extract (barley (Hordeum vulgare subsp. vulgare)); assay: cell-based or functional assay; settings: scale: fraction of the rate of the uninhibited sample
[2] = molecular target: recombinant barley limit dextrinase inhibitor

rate of o-NP release from compound 6 in barley malt extract (absorbance at 430 nm), with and without added limit dextrinase inhibitor [1]: 0.1
Molecule: recombinant barley limit dextrinase inhibitor

B1: barley limit dextrinase present in barley malt extract (protein)
chain: MAVGETGASVSAAEAEAEATQAFMPDARAYWVTSDLIAWNVGELEAQSVCLYASRAAAMSLSPSNGGIQGYDSKVELQPESAGLPETVTQKFPFISSYRAFKVPSSVDVASLVKCQLVVASFGADGKHVDVTGLQLPGVLDDMFAYTGPLGAVFSEDSVSLHLWAPTAQGVSVCFFDGPAGPALETVQLKESNGVWSVTGPREWENRYYLYEVDVYHPTKAQVLKCLAGDPYARSLSANGARTWLVDINNETLKPASWDELADEKPKLDSFSDITIYELHIRDFSAHDGTVDSDSRGGFRAFAYQASAGMEHLRKLSDAGLTHVHLLPSFHFAGVDDIKSNWKFVDECELATFPPGSDMQQAAVVAIQEEDPYNWGYNPVLWGVPKGSYASDPDGPSRIIEYRQMVQALNRIGLRVVMDVVYNHLDSSGPCGISSVLDKIVPGYYVRRDTNGQIENSAAMNNTASEHFMVDRLIVDDLLNWAVNYKVDGFRFDLMGHIMKRTMVTKSALQSLTTDAHGVDGSKIYLYGEGWDFAEVARNQRGINGSQLNMSGTGIGSFNDRIRDAINGGNPFGNPLQQGFNTGLFLEPNGFYQGNEADTRRSLATYADQIQIGLAGNLRDYVLISHTGEAKKGSEIHTFDGLPVGYTASPIETINYVSAHDNETLFDVISVKTPMILSVDERCRINHLASSMMALSQGIPFFHAGDEILRSKSIDRDSYNSGDWFNKLDFTYETNNWGVGLPPSEKNEDNWPLMKPRLENPSFKPAKGHILAALDSFVDILKIRYSSPLFRLSTANDIKQRVRFHNTGPSLVPGVIVMGIEDARGESPEMAQLDTNFSYVVTVFNVCPHEVSMDIPALASMGFELHPVQVNSSDTLVRKSAYEAATGRFTVPGRTVSVFVEPRC
hydrolysis of compound 19 in barley malt extract after 1 h at 60 C (UPLC, fluorescence detection), with and without added LDI [2]: When LDI was added to the extract, almost all activity of limit dextrinase was inhibited, and only negligible amounts of the compound 19 was hydrolyzed
